Data as given in US11407819B2, “Compositions and use of a fibrinogen binding motif present in EFB and COA for therapeutics and vaccines against Staphylococcus aureus” (priority 2013, dated 2022).

Experiments:
[1] = tested on: C2C12-α1 and C2C12-α2 cells (human integrin α1 or α2 subunits); test: C2C12 cell adhesion to coated DC proteins; assay type: cell-based, mouse; conditions: 10 μg coated protein; 1 hour
Description: Integrin interactions with DC2-Fg—A11 cell culture supplies were purchased from Life Technologies and used as received unless otherwise noted. […] Mouse myoblast C2C12, C2C12-α1, and C2C12-α2 cells were cultured in Dulbecco's modified Eagle's medium (DMEM) with 10 vol % fetal bovine serum (FBS) and 1 vol % penicillin-streptomycin, 1 mg ml^−1 geneticin, or 10 μg ml^−1 puromycin, respectively. To assess C2C12 cell adhesion, 48 well tissue culture polystyrene (TCPS) plates were coated with 10 μg of DC1 (negative control—no integrin binding sites), DC2, DC2-Fg, or collagen type I (positive control) overnight at 4° C. Proteins were coated in triplicate for each cell type. Wells were blocked with 4 wt % bovine serum albumin (BSA) in PBS for 1 hour at room temperature and rinsed with sterile PBS. Cells were adapted to serum-free media (DMEM with 1 mM CaCl2, 1 mM MgCl2, and appropriate antibiotic) for 12 hours prior to trypsinization and seeding at 5,000 cells cm^−1. […] Lysates from samples and from known standards were transferred to a 96 well plate, and cell numbers were measured with the CYTOTOX 96® NON-RADIOACTIVE CYTOTOXICITY ASSAY. […] Then, 50 μl of stop solution was added to each well, and the absorbance was read at 490 nm. Cell numbers were quantified using standards of known cell numbers for each cell line.

Fibrinogen = molecular target: T1, Fibrinogen (Homo sapiens, UniProt P02671+P02675+P02679); test: Solid phase binding assay, fibrinogen binding to coated DC2, DC2-Fg, Efb; conditions: read-out: apparent KD of fibrinogen binding
T1 sequence (P02671 20-629 limits assumed): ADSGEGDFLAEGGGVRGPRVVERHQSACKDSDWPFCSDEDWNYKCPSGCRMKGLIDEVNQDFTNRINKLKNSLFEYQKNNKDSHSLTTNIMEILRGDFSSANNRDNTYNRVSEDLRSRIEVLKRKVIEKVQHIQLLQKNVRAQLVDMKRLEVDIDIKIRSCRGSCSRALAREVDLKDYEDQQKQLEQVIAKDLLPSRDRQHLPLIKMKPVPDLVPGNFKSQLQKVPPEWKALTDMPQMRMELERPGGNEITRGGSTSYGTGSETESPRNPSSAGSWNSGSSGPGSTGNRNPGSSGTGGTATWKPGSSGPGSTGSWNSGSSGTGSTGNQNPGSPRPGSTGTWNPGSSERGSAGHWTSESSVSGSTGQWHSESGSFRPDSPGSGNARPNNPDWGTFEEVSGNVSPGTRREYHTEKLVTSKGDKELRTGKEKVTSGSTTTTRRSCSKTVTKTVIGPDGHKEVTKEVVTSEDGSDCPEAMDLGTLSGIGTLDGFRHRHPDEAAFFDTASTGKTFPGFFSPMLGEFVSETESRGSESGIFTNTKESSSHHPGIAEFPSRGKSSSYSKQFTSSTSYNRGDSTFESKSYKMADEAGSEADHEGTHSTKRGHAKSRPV
T1 sequence (P02675 31-491): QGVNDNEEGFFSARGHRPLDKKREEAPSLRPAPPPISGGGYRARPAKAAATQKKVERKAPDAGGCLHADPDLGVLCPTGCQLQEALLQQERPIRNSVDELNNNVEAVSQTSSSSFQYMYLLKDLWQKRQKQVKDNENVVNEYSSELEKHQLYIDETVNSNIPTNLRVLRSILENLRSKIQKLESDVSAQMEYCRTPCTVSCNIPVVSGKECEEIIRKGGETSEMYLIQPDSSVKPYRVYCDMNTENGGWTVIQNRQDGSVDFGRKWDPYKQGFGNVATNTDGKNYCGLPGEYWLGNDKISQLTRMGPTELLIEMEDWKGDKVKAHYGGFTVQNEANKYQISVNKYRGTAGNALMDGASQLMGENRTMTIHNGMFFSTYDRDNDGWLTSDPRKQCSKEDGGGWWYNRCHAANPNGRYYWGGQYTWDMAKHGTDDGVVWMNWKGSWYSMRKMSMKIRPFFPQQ
T1 sequence (P02679 27-453): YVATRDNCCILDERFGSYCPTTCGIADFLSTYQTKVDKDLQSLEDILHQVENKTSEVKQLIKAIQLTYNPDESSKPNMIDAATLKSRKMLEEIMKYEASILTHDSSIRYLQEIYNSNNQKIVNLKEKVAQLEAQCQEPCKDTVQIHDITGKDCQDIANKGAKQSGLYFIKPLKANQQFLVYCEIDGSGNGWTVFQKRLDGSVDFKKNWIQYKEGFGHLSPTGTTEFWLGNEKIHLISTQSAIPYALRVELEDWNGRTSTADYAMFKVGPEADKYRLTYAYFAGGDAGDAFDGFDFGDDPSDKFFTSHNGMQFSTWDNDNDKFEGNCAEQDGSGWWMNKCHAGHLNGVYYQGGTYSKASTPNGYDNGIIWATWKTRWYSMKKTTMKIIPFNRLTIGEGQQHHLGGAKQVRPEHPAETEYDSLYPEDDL
Description: Solid phase binding assay-: Microtiter wells were coated with 1 μg of DC2, DC2-Fg, or Efb overnight at 4° C. to assess fibrinogen adhesion to DC proteins. Coated wells were blocked with 4 wt % BSA in PBS for 1 hour at room temperature. Fibrinogen was added to each protein-coated well in a serial dilution from 100 to 0 μg/well (0.3 to 0 μM). After 1 hour of incubation at room temperature, a sheep anti-fibrinogen antibody was applied to the wells (1:1000 dilution) for 1 hour at room temperature. An HRP-labelled secondary antibody to sheep was applied to the wells for 1 hour at room temperature, and […]™ OPD was utilized to detect bound fibrinogen via an absorbance reading at 450 nm on a THERMOMAX™ plate reader. Studies were performed in triplicate, and plates were washed three times between each step with 200 μl of PBS with 0.1 vol % TWEEN® 20.

rCoa-C binding to Fg = molecular target: T2, rCoa-C binding to Fg (Homo sapiens, UniProt P02671+P02675+P02679); test: Competition ELISA, peptide inhibition of rCoa-C (Coa 311-636) binding to Fg; conditions: increasing concentrations of peptides; 4 nM GST fusion protein
T2 construct: full-length human Fibrinogen (diluted in PBS, Enzyme research); purchased Enzyme research; host or cells: Coa probe made in E. coli BL21
T2 sequence (P02671 20-629 limits assumed): T1 sequence (P02671 20-629 limits assumed)
T2 sequence (P02675 31-491): T1 sequence (P02675 31-491)
T2 sequence (P02679 27-453): T1 sequence (P02679 27-453)
Description: The residues in Coa-RI important for fibrinogen binding. FIG. 12A is a panel of coa-RI variant peptides were synthesized where each residue in the sequence is individually replaced with Ala (or Ser when the native a.a. is Ala). […] Wells were coated with 0.25 μg/well Fg. Labels -1, -2, -3, -4, -5, -6, -7, -8, -9, -10, -11, -12, -13, -14, -15, -16, -17, -18, -19, -20, -21, -22, -23, -24, -25, -26, -27 refer to Coa-RI-1, Coa-RI-2, Coa-RI-3, Coa-RI-4, Coa-RI-5, Coa-RI-6, Coa-RI-7, Coa-RI-8, Coa-RI-9, Coa-RI-10, Coa-RI-11, Coa-RI-12, Coa-RI-13, Coa-RI-14, Coa-RI-15, Coa-RI-16, Coa-RI-17, Coa-RI-18, Coa-RI-19, Coa-RI-20, Coa-RI-21, Coa-RI-22, Coa-RI-23, Coa-RI-24, Coa-RI-25, Coa-RI-26, Coa-RI-27, respectively. FIG. 12C is a comparison of amino acid sequence of Efb-O with Coa-RI. FIG. 12D is a Fg-binding register of tandem repeats in Coa. Bold letters denote the residues that are important for Fg binding. Binding of a fixed concentration of rCoa-C (2 nM) to immobilized Fg was determined in the presence of a fixed concentration of these peptides (50 uM) (FIG. 12B). […]
FIG. 13A is a schematic presentation of Coa peptides. […] The Fg binding activities of these peptides were then investigated in a competition ELISA where the binding of rCoa-C to Fg coated microtiter wells were determined in the presence of increasing concentrations of peptide (FIG. 13B). […]

| Substance | C2C12-α1 and C2C12-α2 adhesion [1] | Kd (Fibrinogen) [nM] | inhibition of rCoa-C binding to fibrinogen by overlapping Coa R peptides (rCoa-C binding to Fg) |
| --- | --- | --- | --- |
| DC2-Fg: DC2 with Fg binding motif Efb-O inserted after position 301 Gln (KYIKFKHDYNILEFNDGTFEYGARPQFNKPA; left off: things letters cannot carry; small tags and cut ends) | significantly increased C2C12-α1 and C2C12-α2 adhesion relative to DC2 | ~10 |  |
| Efb-O: Fg binding motif Efb 68-98 (SEQ ID NO:1); coated comparator in b135 is Efb |  | ~1 |  |
| sCoa-RI2: 27-residue overlapping Coa repeat I peptide (AYNVTTHANGQVSYGARPTYKKPSETN) |  |  | some inhibitory activity |
